The record followed here is publication PMC11251186, “Higher-order structure and proteoforms of co-occurring C4b-binding protein assemblies in human serum” (The EMBO Journal, 2024).

The chains are these.
B1: C4b-binding protein beta chain (C4BPβ) (natural protein, human, UniProt P20851 18-252, looked up)
chain: SDAEHCPELPPVDNSIFVAKEVEGQILGTYVCIKGYHLVGKKTLFCNASKEWDNTTTECRLGHCPDPVLVNGEFSSSGPVNVSDKITFMCNDHYILKGSNRSQCLEDHTWAPPFPICKSRDCDPPGNPVHGYFEGNNFTLGSTISYYCEDRYYLVGVQEQQCVDGEWSSALPVCKLIQEAPKPECEKALLAFQESKNLCEAMENFMQQLKESGMTMEELKYSLELKKAELKAKLL
modifications: N-glycans at N64, N71, N98, N117, N154
notes: three CCP domains; N-terminus S18 after the propeptide cleavage; Disulfide-linked to C4BPα in the assembly; also called β chain; source: endogenous, pooled healthy donor serum (SEC LC-MS)
B2: vitamin K-dependent protein S (ProS) (protein)
chain: ANSLLEETKQGNLERECIEELCNKEEAREVFENDPETDYFYPKYLVCLRSFQTGLFTAARQSTNAYPDLRSCVNAIPDQCSPLPCNEDGYMSCKDGKASFTCTCKPGWQGEKCEFDINECKDPSNINGGCSQICDNTPGSYHCSCKNGFVMLSNKKDCKDVDECSLKPSICGTAVCKNIPGDFECECPEGYRYNLKSKSCEDIDECSENMCAQLCVNYPGGYTCYCDGKKGFKLAQDQKSCEVVSVCLPLNLDTKYELLYLAEQFAGVVLYLKFRLPEISRFSAEFDFRTYDSEGVILYAESIDHSAWLLIALRGGKIEVQLKNEHTSKITTGGDVINNGLWNMVSVEELEHSISIKIAKEAVMDINKPGPLFKPENGLLETKVYFAGFPRKVESELIKPINPRLDGCIRSWNLMKQGASGIKEIIQEKQNKHCLVTVEKGSYYPGSGIAQFHIDYNNVSSAEGWHVNVTLNIRPSTGTGVMLALVSGNNTVPFAVSLVDSTSEKSQDILLSVENTVIYRIQALSLCSDQQSHLEFRVNRNNLELSTPLKIETISHEDLQRQLAVLDKAMKAKVATYLGGLPDVPFSATPVNAFYNGCMEVNINGVQLDLDEAISKHNDIRAHSCPSVWKKTKNS
modifications: N-glycans at N499, N509, N530
B3: C4b-binding protein alpha chain (C4BPα) (natural protein, human, UniProt P04003 49-597, looked up)
chain: NCGPPPTLSFAAPMDITLTETRFKTGTTLKYTCLPGYVRSHSTQTLTCNSDGEWVYNTFCIYKRCRHPGELRNGQVEIKTDLSFGSQIEFSCSEGFFLIGSTTSRCEVQDRGVGWSHPLPQCEIVKCKPPPDIRNGRHSGEENFYAYGFSVTYSCDPRFSLLGHASISCTVENETIGVWRPSPPTCEKITCRKPDVSHGEMVSGFGPIYNYKDTIVFKCQKGFVLRGSSVIHCDADSKWNPSPPACEPNSCINLPDIPHASWETYPRPTKEDVYVVGTVLRYRCHPGYKPTTDEPTTVICQKNLRWTPYQGCEALCCPEPKLNNGEITQHRKSRPANHCVYFYGDEISFSCHETSRFSAICQGDGTWSPRTPSCGDICNFPPKIAHGHYKQSSSYSFFKEEIIYECDKGYILVGQAKLSCSYSHWSAPAPQCKALCRKPELVNGRLSVDKDQYVEPENVTIQCDSGYGVVGPQSITCSGNRTWYPEVPKCEWETPEGCEQVLTGKRLMQCLPNPEDVKMALEVYKLSLEIEQLELQRDSARQSTLDKEL
modifications: N-glycans at N221, N506, N528
notes: eight CCP domains and the C-terminal oligomerization core; without the signal peptide; Disulfide-linked to the other C4BPα chains and to C4BPβ in the assembly; also called α chain; source: endogenous, pooled healthy donor serum (SEC LC-MS)

Where “and” joins values, the source holds several entries; their conditions need not be identical. Equal entries are not always repeated.

For data set [1], the target named is T1, vitamin K-dependent protein S (ProS) (human, UniProt P07225 42-676, N-glycans at N499, N509, N530).
T1 construct: vitamin K-dependent protein S (ProS), human serum protein; GLA domain, four EGF-like domains (E1-E4), two laminin G-like domains (LG1-2); without signal peptide and propeptide; source: purified from pooled plasma of more than 16 healthy donors together with C4BP (bought: Complement Technology, Inc); endogenous, pooled healthy donor serum (SEC LC-MS)
T1 sequence (looked up): B2 chain
Briefly: cross-linking; C4BP 0.5 g/l in PBS pH 7.4, 1 mM DSS or 5 mM DMTMM, 30 min, room temperature; SDS-PAGE bands digested with trypsin, LC-MS/MS; cross-links kept if found in two of three replicates. As to conditions: both partners purified.

Data set [2] deals with B3. Described as above. As to conditions: both partners purified.
Data set [3] deals with T2, C4b-binding protein beta chain (C4BPβ) (Homo sapiens (Human), UniProt P20851, N-glycans at N64, N71, N98, N117, N154).
T2 chain: B1 chain
Briefly: native CDMS, mass photometry, XL-MS and HS-AFM of co-purified serum C4BP complex; C4BPβ present only disulfide-linked to C4BPα in the serum C4BP assembly (α7β1/α6β1), co-purified with ProS; the non-covalent complex dissociates at pH 2 or in urea.

Data set [4] deals with the molecule itself. The experiment in a line: cross-linking; C4BP 0.5 g/l in PBS pH 7.4, 1 mM DSS or 5 mM DMTMM, 30 min, room temperature; SDS-PAGE bands digested with trypsin, LC-MS/MS; cross-links kept if found in two of three replicates.
Data set [5] deals with B1. The experiment in a line: native MS; Orbitrap charge detection MS (CDMS) of native C4BP, 1 M ammonium acetate pH 7.4, ~1 μM. As to conditions: both partners purified.

Consider B1, for which the binding result in data set [1] and in data set [2] was “binds” throughout.

With B2, in data set [3], the binding result is “binds”.

On to B3, for which the binding result in data set [4] was “binds”. Also, the “stoichiometry N” value in data set [5] was 7 C4BPα chains per C4BPβ chain and 6 C4BPα chains per C4BPβ chain.
